The labels stand for the following.
T1: EsCas13d, nuclease-dead (Eubacterium siraeum, UniProt B0MS50, R295A;H300A;R849A;H854A)
T1 sequence: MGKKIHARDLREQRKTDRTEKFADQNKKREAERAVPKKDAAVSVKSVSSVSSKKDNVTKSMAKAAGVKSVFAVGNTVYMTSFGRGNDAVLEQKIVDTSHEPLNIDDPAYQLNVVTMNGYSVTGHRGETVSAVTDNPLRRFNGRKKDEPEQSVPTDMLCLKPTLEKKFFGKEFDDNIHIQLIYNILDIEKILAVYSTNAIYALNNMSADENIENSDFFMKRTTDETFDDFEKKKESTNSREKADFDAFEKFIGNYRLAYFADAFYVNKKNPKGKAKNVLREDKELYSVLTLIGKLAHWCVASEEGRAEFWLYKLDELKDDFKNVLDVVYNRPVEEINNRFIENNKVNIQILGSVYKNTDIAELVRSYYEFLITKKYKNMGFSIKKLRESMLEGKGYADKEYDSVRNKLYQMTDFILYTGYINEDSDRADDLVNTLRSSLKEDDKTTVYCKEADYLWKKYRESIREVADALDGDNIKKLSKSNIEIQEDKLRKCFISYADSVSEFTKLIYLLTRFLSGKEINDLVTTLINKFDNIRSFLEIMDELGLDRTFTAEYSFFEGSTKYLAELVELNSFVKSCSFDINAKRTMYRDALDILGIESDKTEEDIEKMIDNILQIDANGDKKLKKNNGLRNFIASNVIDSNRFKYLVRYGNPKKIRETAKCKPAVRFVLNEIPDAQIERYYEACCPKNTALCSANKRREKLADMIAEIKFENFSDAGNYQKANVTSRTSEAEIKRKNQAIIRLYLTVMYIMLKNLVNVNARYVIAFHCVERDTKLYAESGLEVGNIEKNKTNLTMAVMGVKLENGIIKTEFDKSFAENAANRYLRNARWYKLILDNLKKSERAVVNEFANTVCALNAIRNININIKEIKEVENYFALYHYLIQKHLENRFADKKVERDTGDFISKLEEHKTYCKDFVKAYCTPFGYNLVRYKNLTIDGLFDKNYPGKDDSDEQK

B1: target 1 MT 5'PFS GUC 3'PFS AAU (mixed)
RNA 1: CACCCGUGCAAAAAUGCAGGGGUCUAAAACUGAGCGGAUAACCUCUCUAUGG
RNA 2: GGGAAUGGAUCCACAUCUACGAAUUCGUCCCAUAGAGAGGUUAUCCGCUCAAAUAGAUCGGAAGAGCACACGU
B2: target 1 insC 3' of 11,insA 3' of 11 (mixed)
RNA 1: B1 RNA 1
RNA 2: GGGAAUGGAUCCACAUCUACGAAUUCGUACCAUAGAGAGGUCAUAUCCGCUCACCGAGAUCGGAAGAGCACACGU
B3: target 1 MT 5'PFS UGU 3'PFS UCG (mixed)
RNA 1: B1 RNA 1
RNA 2: B1 RNA 2 with G27U, U28G, C29U, A52U, A53C, U54G
B4: target 1 MT 5'PFS ACU 3'PFS CUA (mixed)
RNA 1: B1 RNA 1
RNA 2: B1 RNA 2 with G27A, U28C, C29U, A52C, A53U, U54A
B5: target 1 MT 5'PFS CUC 3'PFS UUG (mixed)
RNA 1: B1 RNA 1
RNA 2: B1 RNA 2 with G27C, A52U, A53U, U54G
B6: target 1 MT 5'PFS UGU 3'PFS UCA (mixed)
RNA 1: B1 RNA 1
RNA 2: B1 RNA 2 with G27U, U28G, C29U, A52U, A53C, U54A
B7: target 1 MT 5'PFS CUC 3'PFS UUA (mixed)
RNA 1: B1 RNA 1
RNA 2: B1 RNA 2 with G27C, A52U, A53U, U54A
B8: target 1 MT 5'PFS GGA 3'PFS ACG (mixed)
RNA 1: B1 RNA 1
RNA 2: B1 RNA 2 with U28G, C29A, A53C, U54G
B9: target 1 MT 5'PFS UGU 3'PFS UCC (mixed)
RNA 1: B1 RNA 1
RNA 2: B1 RNA 2 with G27U, U28G, C29U, A52U, A53C, U54C
B10: target 1 MT 5'PFS UCC 3'PFS AUA (mixed)
RNA 1: B1 RNA 1
RNA 2: B1 RNA 2 with G27U, U28C, A53U, U54A
B11: target 1 MT 5'PFS UUG 3'PFS UAC (mixed)
RNA 1: B1 RNA 1
RNA 2: B1 RNA 2 with G27U, C29G, A52U, U54C
B12: target 1 MT 5'PFS GGA 3'PFS CAG (mixed)
RNA 1: B1 RNA 1
RNA 2: B1 RNA 2 with U28G, C29A, A52C, U54G
B13: target 1 MT 5'PFS GGA 3'PFS ACC (mixed)
RNA 1: B1 RNA 1
RNA 2: B1 RNA 2 with U28G, C29A, A53C, U54C
B14: target 1 MT 5'PFS UCC 3'PFS AUG (mixed)
RNA 1: B1 RNA 1
RNA 2: B1 RNA 2 with G27U, U28C, A53U, U54G
B15: target 1 MT 5'PFS CUC 3'PFS CCU (mixed)
RNA 1: B1 RNA 1
RNA 2: B1 RNA 2 with G27C, A52C, A53C
B16: target 1 MT 5'PFS CUU 3'PFS AUA (mixed)
RNA 1: B1 RNA 1
RNA 2: B1 RNA 2 with G27C, C29U, A53U, U54A
B17: target 1 MT 5'PFS UUA 3'PFS AAC (mixed)
RNA 1: B1 RNA 1
RNA 2: B1 RNA 2 with G27U, C29A, U54C
B18: target 1 MT 5'PFS CCG 3'PFS UGU (mixed)
RNA 1: B1 RNA 1
RNA 2: B1 RNA 2 with G27C, U28C, C29G, A52U, A53G
B19: target 1 MT 5'PFS GGA 3'PFS ACU (mixed)
RNA 1: B1 RNA 1
RNA 2: B1 RNA 2 with U28G, C29A, A53C
B20: target 1 MT 5'PFS GGA 3'PFS ACA (mixed)
RNA 1: B1 RNA 1
RNA 2: B1 RNA 2 with U28G, C29A, A53C, U54A
B21: target 1 MT 5'PFS CAU 3'PFS AUA (mixed)
RNA 1: B1 RNA 1
RNA 2: B1 RNA 2 with G27C, U28A, C29U, A53U, U54A
B22: target 1 MT 5'PFS CCG 3'PFS UGC (mixed)
RNA 1: B1 RNA 1
RNA 2: B1 RNA 2 with G27C, U28C, C29G, A52U, A53G, U54C
B23: target 1 MT 5'PFS UCG 3'PFS ACU (mixed)
RNA 1: B1 RNA 1
RNA 2: B1 RNA 2 with G27U, U28C, C29G, A53C
B24: target 1 MT 5'PFS GGA 3'PFS CAA (mixed)
RNA 1: B1 RNA 1
RNA 2: B1 RNA 2 with U28G, C29A, A52C, U54A
B25: target 1 MT 5'PFS ACU 3'PFS CUU (mixed)
RNA 1: B1 RNA 1
RNA 2: B1 RNA 2 with G27A, U28C, C29U, A52C, A53U
B26: target 1 MT 5'PFS GGA 3'PFS CAC (mixed)
RNA 1: B1 RNA 1
RNA 2: B1 RNA 2 with U28G, C29A, A52C, U54C
B27: target 1 MT 5'PFS UGU 3'PFS UCU (mixed)
RNA 1: B1 RNA 1
RNA 2: B1 RNA 2 with G27U, U28G, C29U, A52U, A53C
B28: target 1 MT 5'PFS UUG 3'PFS UAG (mixed)
RNA 1: B1 RNA 1
RNA 2: B1 RNA 2 with G27U, C29G, A52U, U54G
B29: target 1 U19G,A20C (mixed)
RNA 1: B1 RNA 1
RNA 2: B1 RNA 2 with C29A, A32C, U33G, A52C, A53C, U54G
B30: target 1 MT 5'PFS UUG 3'PFS UAU (mixed)
RNA 1: B1 RNA 1
RNA 2: B1 RNA 2 with G27U, C29G, A52U
B31: target 1 insU 3' of 17,insU 3' of 12 (mixed)
RNA 1: B1 RNA 1
RNA 2: B2 RNA 2 with A36U, G37A, A38G, G39A, U41G, C42U, A43U
B32: target 1 MT 5'PFS CUC 3'PFS UUC (mixed)
RNA 1: B1 RNA 1
RNA 2: B1 RNA 2 with G27C, A52U, A53U, U54C
B33: target 1 MT 5'PFS CAA 3'PFS UUA (mixed)
RNA 1: B1 RNA 1
RNA 2: B1 RNA 2 with G27C, U28A, C29A, A52U, A53U, U54A
B34: target 1 MT 5'PFS AGG 3'PFS CGA (mixed)
RNA 1: B1 RNA 1
RNA 2: B1 RNA 2 with G27A, U28G, C29G, A52C, A53G, U54A
B35: target 1 MT 5'PFS UCC 3'PFS AUC (mixed)
RNA 1: B1 RNA 1
RNA 2: B1 RNA 2 with G27U, U28C, A53U, U54C
B36: target 1 MT 5'PFS GGG 3'PFS CUU (mixed)
RNA 1: B1 RNA 1
RNA 2: B1 RNA 2 with U28G, C29G, A52C, A53U
B37: target 1 MT 5'PFS UUA 3'PFS AAA (mixed)
RNA 1: B1 RNA 1
RNA 2: B1 RNA 2 with G27U, C29A, U54A

Residue numbers refer to the chain shown, from its start. Names and notes keep the numbering of the source.

The data set concerns the target T1, EsCas13d, nuclease-dead. The experiment in a line: crRNA (strand 1, pre-loaded); Mg2+; 40 mM Tris-HCl pH 7.5, 150 mM NaCl, 6 mM MgCl2, 1 mM DTT, 0.1% Tween-20, 0.2 mg/ml BSA; 25 C; 10 min per concentration, then washed. The following applies: tags: His6-TwinStrep-SUMO cleaved; N-terminal SNAP kept (SNAP-Surface 488); label: 3' end held by stalled T7 RNA polymerase.
The molecule B1 displayed a dissociation constant Kd of 25.5 ± 6.5 nM.
Consider B2, for which the Kd worked out at 21.4 ± 1 nM.
The value for B3 was 61 ± 20.5 nM; that for B4 was roughly 34.5 nM.
Take B5: the Kd is roughly 105 nM.
As for B6, the figure is 47.5 ± 13 nM; as for B7, roughly 43.5 nM; as for B8, 20.5 ± 4 nM.
The value for B9 was 39 ± 10.5 nM.
Consider B10, for which the Kd turned out to be 13.7 ± 5.05 nM.
As for B11, the figure is 42.5 ± 13.5 nM; as for B12, 24.5 ± 5 nM.
The value for B13 was 27.3 ± 7.15 nM.
As for B14, the figure is 39 ± 17 nM; as for B15, roughly 40 nM.
Regarding B16, the Kd is roughly 50.5 nM.
With B17, the affinity, expressed as Kd, was 34 ± 10.5 nM.
The value for B18 was 9.95 ± 2.7 nM; that for B19 was 15.8 ± 2.95 nM.
Molecule B20 gave a Kd of 27 ± 5 nM.
In turn, B21 gave a Kd of roughly 70 nM.
In turn, B22 came in with a Kd of 2.6 ± 0.75 nM.
The value for B23 was 28 ± 10 nM; that for B24 was 52 ± 16 nM.
As for B25, the figure is 38 ± 13 nM; as for B26, 35.5 ± 15 nM.
B27: the Kd was 28.5 ± 6.5 nM.
As for B28, the figure is 47.5 ± 10.5 nM; as for B29, 80 ± 40 nM; as for B30, 16.9 ± 2.45 nM.
The molecule B31 had a Kd of 16.4 ± 3.2 nM.
For the molecule B32, the Kd was roughly 55 nM.
B33 registered a dissociation constant Kd of 7.25 ± 2 nM.
In turn, B34 displayed a dissociation constant (Kd) of roughly 73 nM.
As for B35, the figure is 43.5 ± 17.5 nM; as for B36, 24.5 ± 9 nM; as for B37, roughly 85 nM.

The Kd is a measure of binding affinity in units of concentration. Low readings indicate higher affinity, high ones lower affinity.

The values above are taken from publication PMC10786891, “Massively parallel profiling of RNA-targeting CRISPR-Cas13d”.
